{"source": "paper PMC8704557", "about": "(International Journal of Molecular Sciences, 2021)", "key": {"[1]": {"target": "T1, Dye-LDH complex (recombinant dye-linked L-lactate dehydrogenase, STK16540 (α) / STK16550 (β), α3β3) (Sulfurisphaera tokodaii, UniProt Q970D7)", "T1 construct": "gene ST1655; gene cluster stk_16540-16570 expressed in Sulfolobus acidocaldarius SK1; N-terminal His-tag on STK16540 kept; purified α3β3 heterohexamer, about 253 kDa (subunits 30 and 40 kDa by SDS-PAGE; STK16550 43 kDa); stk_16560 and stk_16570 products not in the purified complex; with Dye-linked L-lactate dehydrogenase, alpha subunit (hypothetical protein with Fe-S cluster motif)", "T1 sequence (Q970D7 1-383)": "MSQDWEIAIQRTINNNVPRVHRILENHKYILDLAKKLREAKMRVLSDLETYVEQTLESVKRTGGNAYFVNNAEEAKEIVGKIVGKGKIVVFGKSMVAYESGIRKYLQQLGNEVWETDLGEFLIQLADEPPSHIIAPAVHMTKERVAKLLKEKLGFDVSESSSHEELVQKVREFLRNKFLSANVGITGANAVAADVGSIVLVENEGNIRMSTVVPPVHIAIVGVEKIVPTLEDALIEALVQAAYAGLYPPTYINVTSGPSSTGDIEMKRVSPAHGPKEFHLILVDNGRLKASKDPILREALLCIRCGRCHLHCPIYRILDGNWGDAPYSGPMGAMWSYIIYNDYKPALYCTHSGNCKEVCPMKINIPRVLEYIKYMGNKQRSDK", "T1 sequence (Q970D8 1-287 partner)": "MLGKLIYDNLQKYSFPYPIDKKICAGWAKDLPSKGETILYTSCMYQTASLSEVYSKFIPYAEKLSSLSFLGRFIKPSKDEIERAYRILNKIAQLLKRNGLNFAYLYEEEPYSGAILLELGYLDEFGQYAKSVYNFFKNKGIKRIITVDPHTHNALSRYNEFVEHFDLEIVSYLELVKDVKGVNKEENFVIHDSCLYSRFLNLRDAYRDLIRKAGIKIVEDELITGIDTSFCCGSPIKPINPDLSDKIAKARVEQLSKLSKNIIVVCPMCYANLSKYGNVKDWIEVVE", "assay": "flavin extracted from purified enzyme, identified by HPLC", "type": "binding", "conditions": "prosthetic group co-purified with the complex"}, "[2]": {"target": "STK16540 protein (product of stk_16540), alpha subunit of the Dye-LDH complex (Sulfurisphaera tokodaii)", "assay": "native gel or EMSA; native gradient PAGE (Novex NativePAGE Bis-Tris gel system) of the purified enzyme; single protein of approximately 253 kDa; subunit masses from SDS-PAGE"}, "[3]": {"substrate": "C[C@H](O)C(=O)O", "assay": "purified protein", "conditions": "electron donor, standard assay 0.2 mM DCIP, 200 mM PIPES-NaOH pH 6.5, 60 °C, free enzyme"}, "[4]": {"substrate": "O=C1C(Cl)=CC(=Nc2ccc(O)cc2)C=C1Cl", "assay": "purified protein", "type": "biochemical, Sulfurisphaera tokodaii", "conditions": "electron acceptor, standard assay 40 mM L-lactate, 200 mM PIPES-NaOH pH 6.5, 60 °C, free enzyme"}}, "data": [{"molecule": "Cc1cc2nc3c(=O)[nH]c(=O)nc-3n(C[C@H](O)[C@H](O)[C@H](O)COP(=O)(O)O)c2cc1C", "note": "[FMN]", "values": [{"measurement": "flavin extracted from purified enzyme, identified by HPLC", "setting": "[1]", "value": "the flavin compound in the enzyme extract was identified as FMN"}]}, {"molecule": "Dye-LDH homolog (product of stk_16550), beta subunit of the Dye-LDH complex (enzyme)", "values": [{"measurement": "stoichiometry N (β per α (3:3))", "setting": "[2]", "value": 1}]}, {"molecule": "Dye-LDH complex (recombinant dye-linked L-lactate dehydrogenase, STK16540 (α) / STK16550 (β), α3β3) (Sulfurisphaera tokodaii str. 7) (protein, gene cluster stk_16540-16570 expressed in Sulfolobus acidocaldarius SK1; N-terminal His-tag on STK16540 kept; purified α3β3 heterohexamer, about 253 kDa (subunits 30 and 40 kDa by SDS-PAGE; STK16550 43 kDa); stk_16560 and stk_16570 products not in the purified complex; with Dye-linked L-lactate dehydrogenase, alpha subunit (hypothetical protein with Fe-S cluster motif)) MSQDWEIAIQRTINNNVPRVHRILENHKYILDLAKKLREAKMRVLSDLETYVEQTLESVKRTGGNAYFVNNAEEAKEIVGKIVGKGKIVVFGKSMVAYESGIRKYLQQLGNEVWETDLGEFLIQLADEPPSHIIAPAVHMTKERVAKLLKEKLGFDVSESSSHEELVQKVREFLRNKFLSANVGITGANAVAADVGSIVLVENEGNIRMSTVVPPVHIAIVGVEKIVPTLEDALIEALVQAAYAGLYPPTYINVTSGPSSTGDIEMKRVSPAHGPKEFHLILVDNGRLKASKDPILREALLCIRCGRCHLHCPIYRILDGNWGDAPYSGPMGAMWSYIIYNDYKPALYCTHSGNCKEVCPMKINIPRVLEYIKYMGNKQRSDK", "values": [{"measurement": "Km", "setting": "[3]", "value": 199, "unit": "µM"}, {"measurement": "Km", "setting": "[4]", "value": 200, "unit": "µM"}]}]}
